{"source": "patent US20220305006", "target": "recombinant sAPPα, human, amino acids 19-613 (UniProt P05067)", "sequence (P05067 19-613)": "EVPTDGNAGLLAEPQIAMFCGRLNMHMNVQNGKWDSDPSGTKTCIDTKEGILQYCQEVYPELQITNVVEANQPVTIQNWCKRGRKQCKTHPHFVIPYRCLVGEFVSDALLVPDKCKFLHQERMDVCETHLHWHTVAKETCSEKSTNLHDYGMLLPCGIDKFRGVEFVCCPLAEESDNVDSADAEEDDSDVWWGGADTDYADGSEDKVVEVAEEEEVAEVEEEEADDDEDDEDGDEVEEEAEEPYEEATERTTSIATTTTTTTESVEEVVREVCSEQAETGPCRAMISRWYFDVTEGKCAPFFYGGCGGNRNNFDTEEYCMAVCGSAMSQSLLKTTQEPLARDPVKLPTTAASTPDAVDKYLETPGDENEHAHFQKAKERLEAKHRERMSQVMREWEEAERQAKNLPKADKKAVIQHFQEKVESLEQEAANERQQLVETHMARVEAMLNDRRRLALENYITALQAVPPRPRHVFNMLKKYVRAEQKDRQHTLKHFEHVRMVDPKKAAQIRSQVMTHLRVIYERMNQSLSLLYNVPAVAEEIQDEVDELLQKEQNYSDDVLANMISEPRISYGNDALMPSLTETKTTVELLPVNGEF"}
{"substance": "Recombinant Human Cathepsin D", "values": [{"measurement": "Cat D activity (fluorogenic substrate)", "result": "sAPPα elicited no inhibition of Cat D activity"}]}
